Source: patent US20240409645A1 (DUALYX, published 2024)
Numbering of substitutions follows the chain as printed.

T1: human IL-2Rβ (human, UniProt P14784 27-240, limits assumed)
T1 construct: Recombinant human IL-2Rβ protein, coated on ELISA plates or immobilized on a CM5 chip; also called hu IL-2R; interleukin 2 receptor β-chain
T1 sequence: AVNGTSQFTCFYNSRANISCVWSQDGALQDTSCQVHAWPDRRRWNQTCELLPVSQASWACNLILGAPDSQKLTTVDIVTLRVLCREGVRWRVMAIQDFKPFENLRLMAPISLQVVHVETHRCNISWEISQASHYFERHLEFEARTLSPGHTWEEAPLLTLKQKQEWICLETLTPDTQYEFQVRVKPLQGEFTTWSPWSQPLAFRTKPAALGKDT

T2: human IL-2Rγ (common cytokine receptor γ-chain) (human, UniProt P31785 23-262, limits assumed)
T2 construct: Recombinant protein coated on the plate or immobilised on a CM5 chip; also called hu IL-2R; CD132
T2 sequence: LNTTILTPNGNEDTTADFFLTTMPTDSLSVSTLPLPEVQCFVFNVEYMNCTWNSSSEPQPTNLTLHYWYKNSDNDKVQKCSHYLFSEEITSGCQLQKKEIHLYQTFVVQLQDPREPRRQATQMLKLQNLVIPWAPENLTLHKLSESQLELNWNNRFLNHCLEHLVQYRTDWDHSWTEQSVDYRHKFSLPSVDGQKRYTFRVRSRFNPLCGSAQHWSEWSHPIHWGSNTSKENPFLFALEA

T3: mouse IL-2Rγ (mouse, UniProt P34902 23-263)
T3 construct: also called mo IL-2R
T3 sequence (looked up): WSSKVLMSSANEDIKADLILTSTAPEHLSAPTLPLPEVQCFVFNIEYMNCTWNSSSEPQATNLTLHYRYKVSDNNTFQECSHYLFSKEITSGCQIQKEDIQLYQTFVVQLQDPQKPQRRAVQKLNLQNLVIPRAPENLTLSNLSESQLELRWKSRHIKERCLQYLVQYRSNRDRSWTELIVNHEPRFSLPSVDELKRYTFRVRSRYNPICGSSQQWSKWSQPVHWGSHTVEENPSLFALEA

B1: FJ1427 P035MP06A08 (VHH)
VHH: EVQLVESGGGLVQAGESLRLSCAASGQYFSTYSMAWFRRTPGKEREFVTIISESGGIKEYVDSVKGRFTVSRDNAKNTVYLQMNSLKPEDTAVYYCAAARDWFARNEYQYDYWGQGTQVTVSS
notes: Soluble VHH in periplasmic extract (P.E.); also called Clone nr
B2: FJ1427_P035MP06F09 (VHH)
VHH: QVQLVESGGGLVQAGGSLTLSCAASGRAFSNYPVGWFRQAPGKEREFVAAITWLSGSTLYADSVEGRFTISRDNAKNTVYLLMSSLKPEDTALYFCAAALKTITRGQNDYSYWGQGTQVTVSS
notes: Soluble VHH in periplasmic extract (P.E.); also called Clone nr; 550
B3: FJ1427_P035MP06G03 (VHH)
VHH: QVQLVESGGGLVQAGGSLRLSCVVSGDVFVRYTMAWFRQAPGKEREFVAVVTDSGRTTEYVDSVKGRFTVSRDNAKNTVYLQMNNLKPEDTAVYYCAANTDYFQIRSVDNNAWGQGTQVTVSS
notes: Soluble VHH in periplasmic extract (P.E.); also called Clone nr; 503
B4: FJ1427_P035MP06B04 (VHH)
VHH: B3 VHH with V23A, V50S, V79A, V108L, N110L, A112T
notes: as for B1
B5: FJ1427_P035MP06C10 (VHH)
VHH: B3 VHH with V23A, V50S, V79A, V108L, N110L, A112T
notes: Soluble VHH in periplasmic extract (P.E.); also called Clone nr; 555
B6: FJ1427_P035MP06H03 (VHH)
VHH: B3 VHH with V23A, V50S, V79A, V108L, N110L, A112T
notes: as for B1
B7: FJ1427_P035MP06E04 (VHH)
VHH: B3 VHH with V23A, V50S, V79A, V108L, N110L, A112T
notes: as for B1
B8: FJ1427_P035MP06G04 (VHH)
VHH: B3 VHH with V5Q
notes: as for B1
B9: FJ1427_P035MP06H05 (VHH)
VHH: B3 VHH with G10R, D62G
notes: Soluble VHH in periplasmic extract (P.E.); also called Clone nr; 520
B10: FJ1427_P035MP06G08 (VHH)
VHH: B3 VHH with V5Q, V23A, V24A, V50S, V79A, V108L, D109N, N110L, A112T
notes: Soluble VHH in periplasmic extract (P.E.); also called Clone nr; 543
B11: FJ1427_P035MP06H08 (VHH)
VHH: B3 VHH with V23A, V24A, V50S, V79A, V93I, V108L, N110L, A112T
notes: as for B1
B12: FJ1427_P035MP06G10 (VHH)
VHH: B3 VHH with V23A, V24A, V50S, V79A, V108L, D109N, N110L, A112T
notes: as for B1
B13: FJ1427_P035MP06H04 (VHH)
VHH: B3 VHH with Q1E, V23A, V50S, V79A, V108L, N110L, A112T
notes: as for B1
B14: FJ1427_P035MP04D01 (VHH)
VHH: QVQLVESGGGLVQAGGSLRLSCAASGRTLSRYAMGWFRQAPGKEREFVTANSWGGDTYYADSVQGRFTFSRDNAKNTVYLQMNSLQPEDTAVYYCAAAPTSFATTAYSSSNSYAYWGQGTQVTVSS
notes: VHH in periplasmic extract; also called clone nr
B15: FJ1427_P035MP04C04 (VHH)
VHH: B14 VHH with Q1E
notes: as for B14
B16: FJ1427_P035MP04A01 (VHH)
VHH: B14 VHH with Q1E
notes: as for B14
B17: FJ1427_P035MP04B05 (VHH)
VHH: B14 VHH with Q1E
notes: as for B14
B18: 34-MP04A12 (VHH)
VHH: B14 VHH with G16S, Y32L, T49A, A50V, Y58F, Q64E, F69Y, N76S, T77A, T120A
notes: VHH in periplasmic extract; also called FJ1427_P035MP04A12; clone nr
B19: FJ1427_P035MP04C06 (VHH)
VHH: B14 VHH with Q1E
notes: as for B14
B20: FJ1427_P035MP04D06 (VHH)
VHH: B14 VHH with T28A, Y32L, T49V, N51S, G55D, Y58F, Q64K, E88G
notes: as for B14
B21: FJ1427_P035MP04E07 (VHH)
VHH: B14 VHH with E46D, T49A, N51T, Q64E, T77A
notes: as for B14
B22: FJ1427_P035MP04E09 (VHH)
VHH: B14 VHH with F67S
notes: as for B14
B23: FJ1427_P035MP04F03 (VHH)
VHH: B14 VHH with Y32N, T49A, N51D, Y58F, Q64E, T77A, A97G, A114R
notes: VHH in periplasmic extract; also called clone nr; 310
B24: FJ1427_P035MP04A06 (VHH)
VHH: B14 VHH with A14P
notes: as for B14
B25: 37-MP07F09 (VHH)
VHH: B14 VHH with F47Y, T49A, A50I, N51D, Y58F, Q64E, T77E, A97G, A114R
notes: VHH in periplasmic extract; also called FJ1427_P035MP07F09; clone nr
B26: FJ1427_P035MP04D03 (VHH)
VHH: B14 VHH with Q1E, G15E
notes: as for B14
B27: FJ1427_P035MP04B08 (VHH)
VHH: B14 VHH with A23V
notes: as for B14
B28: 28-MP04D02 (VHH)
VHH: B14 VHH with S109G
notes: VHH in periplasmic extract; also called FJ1427_P035MP04D02; clone nr; 300
B29: 31-MP04E03 (VHH)
VHH: QVQLVESGGGLVQAGGSLRLSCTGYGGAFTGYALGWFRQAPGKEREFVARINWSGSFTYYASSVKGRFTISRDNAKNTMYLQMNNLKPEDTAVYYCAADNPSTLATDYDNWGQGTQVTVSS
notes: VHH in periplasmic extract; also called FJ1427_P035MP04E03; clone nr

target: T1, human IL-2Rβ; assay: P.E. binding ELISA, human IL-2Rβ coated
Protocol: In a binding ELISA, human or mouse IL-2Rα, IL-2Rβ and IL-2Rγ proteins were coated directly on maxisorp microtiter plates overnight at 4° C. Free binding sites were blocked using 4% Marvel in PBS for 1 hour. Next, 1:5 dilution of P.E. in 1% Marvel/PBS were added to wells and incubated for 1 hour. […] Binding specificity was determined based on O.D. at 450 nm values compared to negative controls.

OD450 nm (P.E. binding ELISA) [OD450 nm]	Binder
0.44	B1
0.564	B2
0.267	B3
0.935	B4
0.358	B5
0.239	B6
0.974	B7
0.213	B8
0.59	B9
0.255	B10
0.313	B11
1	B12
1.02	B13

target: T1, human IL-2Rβ; assay: SPR off-rate ranking of P.E., human IL-2Rβ immobilized
Protocol: (§1) SPR was performed to determine dissociation rates using Biacore 3000 instrument (GE Healthcare). Briefly, human and mouse IL-2R proteins were immobilized on carboxylmethyl dextran sensor chip (CM5) at approximately 2500 RUs using amine coupling in acetate buffer (GE Healthcare). The VHH-containing P.E. were loaded with a flow rate of 30 uL/min and the off-rates were measured over a 120s period.

koff [s⁻¹]	Binder
0.000497	B1
0.000147	B2
0.000586	B3
0.000188	B4
0.000208	B5
0.000196	B6
0.000198	B7
0.000641	B8
0.000885	B9
0.000286	B10
0.000349	B11
0.000261	B12
0.000245	B13

target: T2, human IL-2Rγ (common cytokine receptor …); assay: PE binding ELISA, periplasmic extract on coated protein
In short: (§2)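 Plates were coated overnight at 4° C with human or mouse IL-2R chain protein, and free sites blocked for 1 hour in 4% Marvel in PBS. Periplasmic extracts diluted 1:5 in 1% Marvel/PBS then bound for 1 hour, with specificity assessed from 450 nm absorbance relative to negative controls.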

OD (PE binding ELISA) [OD450 nm]	Binder
1.02	B14
1.43	B15
0.867	B16
1.49	B17
1.3	B18
0.797	B19
2.1	B20
0.919	B21
0.652	B22
1.77	B23
0.898	B24
1.81	B25
1.66	B26
1.44	B27
0.782	B28

target: T3, mouse IL-2Rγ; assay: as above
In short: as §2

OD (PE binding ELISA) [OD450 nm]	Binder
0.066	B14
0.063	B15
0.06	B16
0.063	B17
3.6	B18
0.061	B19
0.637	B20
0.079	B21
0.07	B22
0.3	B23
0.063	B24
1.49	B25
0.063	B26
0.075	B27
0.054	B28
0.495	B29

target: T2, human IL-2Rγ (common cytokine receptor …); assay: SPR off-rate ranking, periplasmic extract on immobilised protein
Protocol: as §1

koff [s⁻¹]	Binder
0.00182	B14
0.00214	B15
0.00156	B16
0.00292	B17
0.000333	B18
0.00201	B19
0.00145	B20
0.00189	B21
0.00162	B22
0.00074	B23
0.00283	B24
0.00126	B25
0.00143	B26
0.00205	B27
0.0088	B28

target: T3, mouse IL-2Rγ; assay: as above
Protocol: as §1

koff [s⁻¹]	Binder
0.113	B14
0.151	B15
0.132	B16
0.138	B17
0.00809	B18
0.0465	B19
0.0137	B20
0.215	B21
0.109	B22
0.061	B23
0.113	B24
0.007	B25
0.168	B26
0.113	B27
0.319	B28
0.283	B29
